Source: patent US20230076063

How the values were obtained:
Assay in all cases: cell_activity
[1] = system: MamA G152S G152S (Mycobacterium tuberculosis); conditions: SMRT sequencing kinetics; partial stochastic methylation
[2] = system: MamA W136R W136R (Mycobacterium tuberculosis); conditions: SMRT sequencing kinetics; methylation knockout, binding itself not measured
[3] = system: MamA E270A E270A (Mycobacterium tuberculosis); conditions: SMRT sequencing kinetics; partial stochastic methylation
[4] = system: MamB K1033T K1033T (Mycobacterium tuberculosis); conditions: SMRT sequencing kinetics; single isolate

CTGGAG (double strand) [MamA target motif sites]
activity (mean SMALR native score) [1]: 0.766 | activity (mean SMALR native score) [2]: -0.107 | activity (mean SMALR native score) [3]: 0.0558

MamB target motif sites
activity (mean SMALR native score) [4]: 0.299
